Experiment [1] concerns the target T1, human DR3 (full length, on cells) (human, UniProt Q93038 25-417).
T1 construct: also called hDR3; Death Receptor 3
T1 sequence: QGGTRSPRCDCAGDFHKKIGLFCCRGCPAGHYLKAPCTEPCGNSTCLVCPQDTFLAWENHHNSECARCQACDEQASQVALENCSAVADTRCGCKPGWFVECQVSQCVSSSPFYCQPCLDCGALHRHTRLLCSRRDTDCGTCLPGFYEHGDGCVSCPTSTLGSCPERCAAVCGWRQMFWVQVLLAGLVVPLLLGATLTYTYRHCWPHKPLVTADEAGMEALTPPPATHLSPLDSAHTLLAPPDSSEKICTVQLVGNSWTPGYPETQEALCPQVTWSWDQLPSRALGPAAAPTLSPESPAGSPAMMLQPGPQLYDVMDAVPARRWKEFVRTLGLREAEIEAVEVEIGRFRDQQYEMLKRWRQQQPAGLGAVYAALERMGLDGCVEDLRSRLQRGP
As to the kind of experiment: flow cytometry on CD3/CD28-stimulated human CD4+ T cells. As for the experimental part:
Human CD4-positive T cells were purified from Buffy coats using CD4 Rosettesep (Stem cell technologies) and Histopaque (Sigma). T cells were stimulated with CD3/CD28 Dynabeads (Invitrogen) at a 1:1 ratio for 4 days in T75 flask at 2 mio CD4 T cells/ml in RPMI supplemented with 10% fcs. Beads were removed using a magnet, and cells were washed twice before titrating in antibodies on 500.000 cells/staining. Binding saturation was measured after incubation with goat-anti-mouse phycoerythrin (Jackson ImmunoResearch) and cells were subsequently analysed by flow cytometry on a BD LSRII. All antibodies reached saturation at 3 μg/ml.
Background: A flow cytometer gives signals particle by particle.

In a further experiment the target is T2, DR3 (CRD1)-Fc (human).
T2 construct: Amino acids 25-71 of DR3 fused to the Fc domain of human IgG4; purified to exclude oligomers (mainly dimeric)
Put plainly: SPR, Biacore T100, DR3-Fc fusion immobilised. The text has this: The extracellular moiety of DR3 is located at the aminoterminal portion of DR3 and is comprised of four TNF receptor cysteine-rich domains. Several fusion proteins were expressed and purified which contained parts of the extracellular domain of DR3 of increasing length fused to the Fc domain of a human IgG4. The DR3 proteins used for SPR analysis had been purified to exclude oligomerized material. These proteins were immobilized to a CM5 sensor chip using amine coupling chemistry. Binding of anti-DR3 antibodies termed 0070, 0072, 0073 and 0076, to the different DR3-Fc fusion proteins was tested by means of plasmon surface binding measurements on a Biacore T100 instrument (GE Healthcare). All of these antibodies inhibit binding of TL1A to DR3 in a FACS assay. These 4 antibodies bound to recombinant DR3 (CRD1)-Fc protein that contained only the aminoterminal CRD (SEQ ID NO:2) comprised of amino acids 25-71 of DR3.
On the technique in general: In SPR one partner is held on a chip, and binding of the other changes the refractive index at the surface.

Experiment [2] has as its target T1, human DR3 (full length, on cells). As to the kind of experiment: cell-based or functional assay.
The target is the same in experiment [3]. As to the kind of experiment: cell-based or functional assay. The source holds these as a separate data set.
For experiment [4] the target is unchanged. Put plainly: cell-based or functional assay. The source holds these as a separate data set.
The next experiment concerns the target T3, DR3 (ECD)-Fc (human).
T3 construct: ECD of DR3, a linker with a TEV cleavage site and the Fc part of human IgG4; dimeric fraction used; also called DR3-Fc; hDR3-Fc
Put plainly: HX-MS with hDR3 ECD-Fc. As for the experimental part: The Leap robot was equipped with two temperature controlled stacks maintained at 20° C. for buffer storage and HX reactions and maintained at 2° C. for storage of protein and quench solution, respectively. The Waters HDX system furthermore contained a temperature controlled chamber holding the pre- and analytical columns, and the LC tubing and switching valves at 1° C. A separately temperature controlled chamber holds the pepsin column at 25° C. […] The resulting peptides were trapped and desalted on a VanGuard pre-column BEH C18 1.7 μm (2.1×5 mm (Waters Inc.)). Subsequently, the valves were switched to place the pre-column inline with the analytical column, UPLC-BEH C18 1.7 μm (1×100 mm (Waters Inc.)), and the peptides separated using a 9 min gradient of 10-40% B delivered at 200 μl/min from the nanoAQUITY UPLC system (Waters Inc.). The mobile phases consisted of A: 0.1% formic acid and B: 0.1% formic acid in CH₃CN. The ESI MS data, and the separate elevated energy (MS^E) experiments were acquired in positive ion mode using a Synapt G2 mass spectrometer (Waters Inc.).
All HX reactions were carried out at 20° C. and contained […] hDR3 in the absence or presence of […] Fab thus giving a 5 fold molar excess of Fab. […]

Positions count from the first letter of the chain named. Names may count otherwise.

B1: 0070 (murine mAb purified from hybridoma 27F16A1) (antibody, V domains shown)
VH: EVQLVESGGDFVKPGGSLKLSCAASGFTFNNYGMSWVRQTPDKRLEWVAAISSGVTYTYYPDTVKGRFTISRDNAKNTLYLHMSSLKSEDTAMYYCGRHDDYGNHFDYWGQGTTLTVSS
VL: DIVMTQSPSSLAMSLGQRVTMNCKSSQSLLNSHNQKNYLAWYQQKPGQSPKLLVYFASSRESGVPDRFIGSGSGTDFTLTISSVQAEDLADYFCQQHYSTPFTFGSGTKLEIKR
notes: murine IgG1, kappa; also called 0083
For B1, in experiment [1], the “Median Fluorescent Intensity” value is 2330, the “Staining index (MFI Ab/MFI Isotype)” value came to 10.5 and the saturation concentration worked out at 3 µg/mL. In addition, in the experiment with DR3 (CRD1)-Fc, the binding result is “binds”.

B2: 0170 (humanized IgG1 Fab of 0072; HC T28A S49A Y91; LC Q3A T5A S60A M4) (Fab, V domains shown)
VH: EVQLVESGGGLVQPGGSLRLSCAASGFTFSNYDMSWVRQAAGKGLEWVSAFSSDGYTFYPGAVKGRFTISRENAKNSLYLQMNSLRAGDTAVYYCARHADYANYPVMDYWGQGTLVTVSS
VL: DIAMAQSPSSLSASVGDRVTITCRASKSVSTSGYSYMHWYQQKPGKAPKLLIYLASNLEAGVPSRFSGSGSGTDFTLTISSLQPEDFATYYCQHSRELPLTFGGGTKVEIK
Consider B2, for which, in experiment [2], the “IFN-γ, TL1A-costimulated RA SF cells, Fab 0.003 µg/mL” value came out at 1790 pg/mL; the “IFN-γ, TL1A-costimulated RA SF cells, Fab 0.01 µg/mL” value was 1640 pg/mL; the “IFN-γ, TL1A-costimulated RA SF cells, Fab 0.03 µg/mL” value came to 1360 pg/mL; the “IFN-γ, TL1A-costimulated RA SF cells, Fab 0.1 µg/mL” value amounted to 1170 pg/mL. Further, in experiment [2], the “IFN-γ, TL1A-costimulated RA SF cells, Fab 0.3 µg/mL” value worked out at 1300 pg/mL and the “IFN-γ, TL1A-costimulated RA SF cells, Fab 1 µg/mL” value (from here on “IFN-γ … Fab 1 µg/mL”) is 1250 pg/mL. Moreover, in experiment [3], the “IFN-γ, TL1A-costimulated lymphocytes, Fab 0.003 µg/mL” value amounted to 131 ng/mL; the “IFN-γ, TL1A-costimulated lymphocytes, Fab 0.01 µg/mL” value was 101 ng/mL; the “IFN-γ, TL1A-costimulated lymphocytes, Fab 0.03 µg/mL” value was 108 ng/mL; the “IFN-γ, TL1A-costimulated lymphocytes, Fab 0.1 µg/mL” value was determined as 46 ng/mL. In addition, in experiment [3], the “IFN-γ, TL1A-costimulated lymphocytes, Fab 0.3 µg/mL” value was found to be 51 ng/mL and the “IFN-γ, TL1A-costimulated lymphocytes, Fab 1.0 µg/mL” value (“IFN-γ … Fab 1.0 µg/mL” below) is 63 ng/mL. Besides, the “IC100 of inhibition of IFN-γ secretion, TL1A-costimulated RA synovial fluid cells” value (“IC100 of inhibition of IFN-γ secretion” for short) in experiment [4] is around 0.1 µg/mL.

B3: 0173 (humanized IgG1 Fab of 0072; HC T28A S49A Y91S; LC Q3A T5A S60A M4L) (Fab, V domains shown)
VH: B2 VH with Y104S
VL: B2 VL with M4L
With B3, in experiment [2], the “IFN-γ, TL1A-costimulated RA SF cells, Fab 0.003 µg/mL” value was 1550 pg/mL; the “IFN-γ, TL1A-costimulated RA SF cells, Fab 0.01 µg/mL” value worked out at 1230 pg/mL; the “IFN-γ, TL1A-costimulated RA SF cells, Fab 0.03 µg/mL” value was 1130 pg/mL; the “IFN-γ, TL1A-costimulated RA SF cells, Fab 0.1 µg/mL” value was 1130 pg/mL. For the same molecule, in experiment [2], the “IFN-γ, TL1A-costimulated RA SF cells, Fab 0.3 µg/mL” value was 992 pg/mL and the “IFN-γ … Fab 1 µg/mL” value came to 1060 pg/mL. In experiment [3], the “IFN-γ, TL1A-costimulated lymphocytes, Fab 0.003 µg/mL” value turned out to be 160 ng/mL; the “IFN-γ, TL1A-costimulated lymphocytes, Fab 0.01 µg/mL” value was determined as 163 ng/mL; the “IFN-γ, TL1A-costimulated lymphocytes, Fab 0.03 µg/mL” value was determined as 95 ng/mL; the “IFN-γ, TL1A-costimulated lymphocytes, Fab 0.1 µg/mL” value turned out to be 69 ng/mL. In experiment [3], the “IFN-γ, TL1A-costimulated lymphocytes, Fab 0.3 µg/mL” value came out at 62 ng/mL and the “IFN-γ … Fab 1.0 µg/mL” value came out at 48 ng/mL. For the same molecule, in experiment [4], the “IC100 of inhibition of IFN-γ secretion” value was around 0.1 µg/mL.

B4: 0171 (humanized IgG1 Fab of 0072 without back mutations) (Fab, V domains shown)
VH: B2 VH with A41T, A62S
VL: B2 VL with A3Q, A5T, A60S
On to B4, for which, in experiment [2], the “IFN-γ, TL1A-costimulated RA SF cells, Fab 0.003 µg/mL” value was determined as 1870 pg/mL; the “IFN-γ, TL1A-costimulated RA SF cells, Fab 0.01 µg/mL” value came out at 1380 pg/mL; the “IFN-γ, TL1A-costimulated RA SF cells, Fab 0.03 µg/mL” value turned out to be 1220 pg/mL; the “IFN-γ, TL1A-costimulated RA SF cells, Fab 0.1 µg/mL” value came out at 1140 pg/mL. Further, in experiment [2], the “IFN-γ, TL1A-costimulated RA SF cells, Fab 0.3 µg/mL” value turned out to be 1160 pg/mL and the “IFN-γ … Fab 1 µg/mL” value is 1230 pg/mL. Moreover, in experiment [3], the “IFN-γ, TL1A-costimulated lymphocytes, Fab 0.003 µg/mL” value was found to be 140 ng/mL; the “IFN-γ, TL1A-costimulated lymphocytes, Fab 0.01 µg/mL” value stood at 105 ng/mL; the “IFN-γ, TL1A-costimulated lymphocytes, Fab 0.03 µg/mL” value was 69 ng/mL; the “IFN-γ, TL1A-costimulated lymphocytes, Fab 0.1 µg/mL” value was 52 ng/mL. Moreover, in experiment [3], the “IFN-γ, TL1A-costimulated lymphocytes, Fab 0.3 µg/mL” value amounted to 62 ng/mL and the “IFN-γ … Fab 1.0 µg/mL” value stood at 40 ng/mL. The “IC100 of inhibition of IFN-γ secretion” value in experiment [4] is around 0.1 µg/mL.

B5: 0163 (chimeric Fab of 45F187, human IgG4 constant domain, hinge Cys->Ser) (Fab, V domains shown)
VH: EVQLVESGGGLVQPGGSLRLSCATSGFTFTNYYMAWVRKPPGKTLEWLGFMRNIVNGYTTDYSGSVEGRFTISRDNSQSILYLQMNALRPEDSATYYCARDIGYRYDGGGYGLDYWGQGTSVTVSS
VL: DIQMTQSPASLSASVGETVTLTCRASGNIHNYLTWYQQKQGKSPQLLVYNVKTLADGVSSRFSGSGSGTQFSLKINSLQPEDFGSYYCQHFWTTPYTFGGGTKLEIRR
notes: IgG4-Ser, chimeric; also called 0150
Take B5: the binding result with DR3 (ECD)-Fc is recorded as “binds”.
